Reference: paper PMC5663480, “Structural inhibition of dynamin-mediated membrane fission by endophilin” (eLife, 2017)

Target: the molecule itself
Assay: cryo-EM structure; 2D class averages of endophilin-only coat on lipid tubules: 11 µM protein, DOPS liposomes (0.5 g/l), GTPase buffer, 30 min room temperature

B1: Rat endophilinA1 (natural protein, UniProt O35179 1-352, looked up)
chain: MSVAGLKKQFHKATQKVSEKVGGAEGTKLDDDFKEMERKVDVTSRAVMEIMTKTIEYLQPNPASRAKLSMINTMSKIRGQEKGPGYPQAEALLAEAMLKFGRELGDDCNFGPALGEVGEAMRELSEVKDSLDMEVKQNFIDPLQNLHDKDLREIQHHLKKLEGRRLDFDYKKKRQGKIPDEELRQALEKFDESKEIAESSMFNLLEMDIEQVSQLSALVQAQLEYHKQAVQILQQVTVRLEERIRQASSQPRREYQPKPRMSLEFATGDGTQPNGGLSHTGTPKPAGVQMDQPCCRALYDFEPENEGELGFKEGDIITLTNQIDENWYEGMLHGQSGFFPINYVEILVALPH
notes: Rat endophilinA1, wild type and full-length; source: E. coli, pGEX-6P vector, purified (glutathione Sepharose, PreScission cleavage)
binding result: binds
